Source: US20240059799A1 (Pfizer, published 2024)

T1: recombinant human TL1A (human, UniProt O95150 71-251)
T1 construct: homotrimer; biotinylated for SPR capture; the ELISA paragraphs say only 'recombinant TL1A'; also called TNFSF15
T1 chain: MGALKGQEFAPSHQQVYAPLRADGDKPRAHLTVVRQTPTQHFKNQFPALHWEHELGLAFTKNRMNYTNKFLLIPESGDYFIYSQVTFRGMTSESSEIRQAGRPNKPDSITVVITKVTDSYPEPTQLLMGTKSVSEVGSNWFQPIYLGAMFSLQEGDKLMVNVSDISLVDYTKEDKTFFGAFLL


Molecular target: T1, recombinant human TL1A
Assay: competition ELISA vs bio-TL1A-0002
Procedure: For this competition ELISA assay procedure, 96-well high binding plates (Corning, product number 3590) were coated with 1 μg/mL recombinant TL1A in 100 μL/well in Phospate Buffered Saline (PBS) overnight at 4° C. Plates were then blocked in PBS+0.02% casein solution and washed with PBS+0.05% Tween-20 following standard ELISA protocol. […] Plates were washed with PBS+0.05% Tween-20 following standard ELISA protocol, and Streptavidin-HRP (Southern Biotech, product number 7100-05) diluted to 1:10,000 in assay buffer was added to plates and incubated for 25-30 minutes at room temperature. Next, the plates were washed with PBS+0.05% Tween-20 following standard ELISA protocol, and then TMB substrate (BioFX Laboratories, catalog number TMBW-0100-01) was added to plates. Reactions were stopped after approximately 5 minutes by adding 0.18 M ortho-phosphoric acid to each well and absorbance was read at 450 nm.

| Binder | Bioactivity relative to TL1A-0002 | IC50 |
| --- | --- | --- |
| TL1A-0089 (antibody, IgG1, V domains shown, IgG1/kappa variant of TL1A-0002) VH: QVQLVQSGAEVKKPGASVKVSCKASGYDFTYYGISWVRQAPGQGLEWMGWISTYNTGTHYAQKLQGRVTMTTDTSTRTAYMELRSLRSDDTAVYYCARENYYGSGAYRGGMDVWGQGTTVTVSS VL: EIVLTQSPATLSLSPGERATLSCRASQSVSSYLAWYQQKPGQAPRLLIYDASNRATGIPARFSGSGSGTDFTLTISSLEPEDFAVYYCQQRSNWPWTFGQGTKVEIKR | 1.2 fold | 5.4 nM |
| TL1A-0092 (antibody, IgG1, V domains shown, IgG1/kappa variant of TL1A-0002) VH: QVQLVQSGAEVKKPGASVKVSCKASGYDFTYYGISWVRQAPGQGLEWMGWISTYNTVTHYAPSLQGRVTMTTDTSTRTAYMELRSLRSDDTAVYYCARENYYGSGAYRGGMDVWGQGTTVTVSS VL: EIVLTQSPATLSLSPGERATLSCRASQSVSSYLAWYQQKPGQAPRLLIYDASNRATGIPARFSGSGSGTDFTLTISSLEPEDFAVYYCQQRSNWPWTFGQGTKVEIKR | 1.2 fold | 5.2 nM |
| TL1A-0091 (antibody, IgG1, V domains shown, IgG1/kappa variant of TL1A-0002) VH: QVQLVQSGAEVKKPGASVKVSCKASGYDFTYYGISWVRQAPGQGLEWMGWISTYNTVTHYAQKLQGRVTMTTDTSTRTAYMELRSLRSDDTAVYYCARENYYGSGAYRGGMDVWGQGTTVTVSS VL: EIVLTQSPATLSLSPGERATLSCRASQSVSSYLAWYQQKPGQAPRLLIYDASNRATGIPARFSGSGSGTDFTLTISSLEPEDFAVYYCQQRSNWPWTFGQGTKVEIKR | 1.2 fold | 5.4 nM |
| TL1A-0090 (antibody, IgG1, V domains shown, IgG1/kappa variant of TL1A-0002) VH: QVQLVQSGAEVKKPGASVKVSCKASGYDFTYYGISWVRQAPGQGLEWMGWISTYNTGTHYAPSLQGRVTMTTDTSTRTAYMELRSLRSDDTAVYYCARENYYGSGAYRGGMDVWGQGTTVTVSS VL: EIVLTQSPATLSLSPGERATLSCRASQSVSSYLAWYQQKPGQAPRLLIYDASNRATGIPARFSGSGSGTDFTLTISSLEPEDFAVYYCQQRSNWPWTFGQGTKVEIKR | 1 fold | 4.5 nM |
| TL1A-0094 (antibody, IgG1, V domains shown, IgG1/kappa variant of TL1A-0002) VH: QVQLVQSGAEVKKPGASVKVSCKASGYDFTYYGISWVRQAPGQGLEWMGWISTYNGNTHYARMLQGRVTMTTDTSTRTAYMELRSLRSDDTAVYYCARESYYGSGAYRGGMDVWGQGTTVTVSS VL: EIVLTQSPATLSLSPGERATLSCRASQSVSSYLAWYQQKPGQAPRLLIYDASNRATGIPARFSGSGSGTDFTLTISSLEPEDFAVYYCQQRSNWPWTFGQGTKVEIKR | 1.2 fold | 5.5 nM |
| TL1A-0095 (antibody, IgG1, V domains shown, IgG1/kappa variant of TL1A-0002) VH: QVQLVQSGAEVKKPGASVKVSCKASGYDFTYYGISWVRQAPGQGLEWMGWISTYNGNTHYARMLQGRVTMTTDTSTRTAYMELRSLRSDDTAVYYCARETYYGSGAYRGGMDVWGQGTTVTVSS VL: EIVLTQSPATLSLSPGERATLSCRASQSVSSYLAWYQQKPGQAPRLLIYDASNRATGIPARFSGSGSGTDFTLTISSLEPEDFAVYYCQQRSNWPWTFGQGTKVEIKR | 2 fold | 8.8 nM |
| TL1A-0093 (antibody, IgG1, V domains shown, IgG1/kappa variant of TL1A-0002) VH: QVQLVQSGAEVKKPGASVKVSCKASGYDFTYYGISWVRQAPGQGLEWMGWISAYNANTHYAPSLQGRVTMTTDTSTRTAYMELRSLRSDDTAVYYCARENYYGSGAYRGGMDVWGQGTTVTVSS VL: EIVLTQSPATLSLSPGERATLSCRASQSVSSYLAWYQQKPGQAPRLLIYDASNRATGIPARFSGSGSGTDFTLTISSLEPEDFAVYYCQQRSNWPWTFGQGTKVEIKR | 1.3 fold | 5.9 nM |

Other lines, results leading:

| Bioactivity relative to TL1A-0002 | IC50 | Binder |
| --- | --- | --- |
| 2.2 fold | 10 nM | TL1A-0097 (antibody, IgG1, V domains shown, IgG1/kappa variant of TL1A-0002) VH: QVQLVQSGAEVKKPGASVKVSCKASGYDFTYYGISWVRQAPGQGLEWMGWISTYNGNTHYARMLQGRVTMTTDTSTRTAYMELRSLRSDDTAVYYCAREQYYGSGAYRGGMDVWGQGTTVTVSS VL: EIVLTQSPATLSLSPGERATLSCRASQSVSSYLAWYQQKPGQAPRLLIYDASNRATGIPARFSGSGSGTDFTLTISSLEPEDFAVYYCQQRSNWPWTFGQGTKVEIKR |
| 0.9 fold | 4.2 nM | TL1A-0167 (antibody, human IgG1, kappa, V domains shown, TL1A-0002 heavy chain with R(H76)S, TL1A-0002 light chain) VH: QVQLVQSGAEVKKPGASVKVSCKASGYDFTYYGISWVRQAPGQGLEWMGWISTYNGNTHYARMLQGRVTMTTDTSTSTAYMELRSLRSDDTAVYYCARENYYGSGAYRGGMDVWGQGTTVTVSS VL: EIVLTQSPATLSLSPGERATLSCRASQSVSSYLAWYQQKPGQAPRLLIYDASNRATGIPARFSGSGSGTDFTLTISSLEPEDFAVYYCQQRSNWPWTFGQGTKVEIKR |
| 1.6 fold | 7.2 nM | TL1A-0147 (antibody, IgG1, V domains shown, IgG1/kappa variant of TL1A-0002) VH: QVQLVQSGAEVKKPGASVKVSCKASGYDFTYYGISWVRQAPGQGLEWMGWISTYNGNEHYAQKLQGRVTMTTDTSTRTAYMELRSLRSDDTAVYYCARENYYGSGAYRGGMDVWGQGTTVTVSS VL: EIVLTQSPATLSLSPGERATLSCRASQSVSSYLAWYQQKPGQAPRLLIYDASNRATGIPARFSGSGSGTDFTLTISSLEPEDFAVYYCQQRSNWPWTFGQGTKVEIKR |
| 2 fold | 9.1 nM | TL1A-0160 (antibody, IgG1, V domains shown, IgG1/kappa variant of TL1A-0002) VH: QVQLVQSGAEVKKPGASVKVSCKASGYDFTYYGISWVRQAPGQGLEWMGWISTYNGNEHYAPSLQGRVTMTTDTSTRTAYMELRSLRSDDTAVYYCARENYYGSGLYRGGMDVWGQGTTVTVSS VL: EIVLTQSPATLSLSPGERATLSCRASQSVSSYLAWYQQKPGQAPRLLIYDASNRATGIPARFSGSGSGTDFTLTISSLEPEDFAVYYCQQRSNWPWTFGQGTKVEIKR |
| 2.7 fold | 12 nM | TL1A-0193 (antibody, IgG1, V domains shown, IgG1/kappa variant of TL1A-0002) VH: QVQLVQSGAEVKKPGASVKVSCKASGYDFTYYGISWVRQAPGQGLEWMGWISTYNGNTHYARMLQGRVTMTTDTSTRTAYMELRSLRSDDTAVYYCAREQYYGSGEYRGGMDVWGQGTTVTVSS VL: EIVLTQSPATLSLSPGERATLSCRASQSVSSYLAWYQQKPGQAPRLLIYDASNRATGIPARFSGSGSGTDFTLTISSLEPEDFAVYYCQQRSNWPWTFGQGTKVEIKR |
| 2.3 fold | 10.3 nM | TL1A-0096 (antibody, IgG1, V domains shown, IgG1/kappa variant of TL1A-0002) VH: QVQLVQSGAEVKKPGASVKVSCKASGYDFTYYGISWVRQAPGQGLEWMGWISTYNGNTHYARMLQGRVTMTTDTSTRTAYMELRSLRSDDTAVYYCAREVYYGSGAYRGGMDVWGQGTTVTVSS VL: EIVLTQSPATLSLSPGERATLSCRASQSVSSYLAWYQQKPGQAPRLLIYDASNRATGIPARFSGSGSGTDFTLTISSLEPEDFAVYYCQQRSNWPWTFGQGTKVEIKR |
| 1.5 fold | 6.6 nM | TL1A-0098 (antibody, IgG1, V domains shown, IgG1/kappa variant of TL1A-0002) VH: QVQLVQSGAEVKKPGASVKVSCKASGYDFTYYGISWVRQAPGQGLEWMGWISTYNGNTHYARMLQGRVTMTTDTSTRTAYMELRSLRSDDTAVYYCAREEYYGSGAYRGGMDVWGQGTTVTVSS VL: EIVLTQSPATLSLSPGERATLSCRASQSVSSYLAWYQQKPGQAPRLLIYDASNRATGIPARFSGSGSGTDFTLTISSLEPEDFAVYYCQQRSNWPWTFGQGTKVEIKR |
